Data reported in PMC5496861, “Yeast Cip1 is activated by environmental stress to inhibit Cdk1–G1 cyclins via Mcm1 and Msn2/4”.

Molecular target: T1, GST-Msn2(401-704) (Saccharomyces cerevisiae, UniProt P33748 401-704)
T1 sequence: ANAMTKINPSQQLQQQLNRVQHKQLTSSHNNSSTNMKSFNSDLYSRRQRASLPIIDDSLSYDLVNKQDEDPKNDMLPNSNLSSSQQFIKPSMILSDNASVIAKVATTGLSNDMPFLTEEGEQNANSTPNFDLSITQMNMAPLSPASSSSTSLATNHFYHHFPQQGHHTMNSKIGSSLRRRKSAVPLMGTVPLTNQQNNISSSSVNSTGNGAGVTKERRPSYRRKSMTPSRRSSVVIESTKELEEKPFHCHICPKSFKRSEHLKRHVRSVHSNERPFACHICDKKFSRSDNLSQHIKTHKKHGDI
Experiment: EMSA; 100 ng protein, 32P-end-labeled ds oligos, 4% nondenaturing polyacrylamide gel; buffer, salt, pH and temperature not given (as previously described, ref 64)
Settings: protein: recombinant; tags: N-terminal GST (pGEX4T-1); label: 32P end label; blunt

B1: STRE II (dsDNA)
DNA 1: GTATTTTCCTCCCCCTAGCTTCAAC
DNA 2: GTTGAAGCTAGGGGGAGGAAAATAC
- binding result: binds

B2: STRE I (dsDNA)
DNA 1: GGAACTCGCGCAGGGGGAAGACATA
DNA 2: TATGTCTTCCCCCTGCGCGAGTTCC
- binding result: binds
